# Data published in patent US20030032157A1, “Polypeptides interactive with Bcl-XL” (priority 2001, published 2003).
# B1: Bak BH3 domain-containing peptide MGQVGRQLAIIGDDINRDYKDDDDKASA (peptide)
# peptide: MGQVGRQLAIIGDDINRDYKDDDDKASA
# notes: Chemically synthesized free peptide; also called selected Bak fragment
# B2: BH3 domain of Bcl-2, mRNA display construct (peptide, UniProt P10415 91-106, looked up)
# peptide: PVVHLTLRQAGDDFSR
# notes: domain: BH3 domain; Peptide fused to its mRNA through puromycin; also called BH3 helix from Bcl-2
# B3: clone t53 (peptide)
# chain: LDPVKDVLILSALRRMLWAADDFLEDLPFEQIG
# notes: mRNA display clone from a known polypeptide
# Experiments:
# [1] = biological target: T1, human Bcl-XL protein produced as a GST fusion (Homo sapiens, UniProt Q07817); experiment: Binding of mRNA display constructs to Bcl-XL-GST fusion protein immobilized on glutathione Sepharose beads (scintillation counting); conditions: BH3 domain or control peptides as individual mRNA display constructs, 1 hr 4° C.
# T1 construct: made in house; host or cells: E. coli BL21 (DE3) pLysS
# Method: Detection of a polypeptide binding to a Bcl-XL-glutathione S-transferase (GST) fusion protein was carried out as follows. Twenty microliters of glutathione Sepharose 4B slurry (AP Biotech) was aliquoted to a microcentrifuge tube and washed with PBS. The Bcl-XL-GST fusion protein (60 μg), prepared as describe above, was added and allowed to bind to the Sepharose beads for 1 hr at 4° C. The beads were then re-washed in selection buffer (50 mM Tris-HCL pH 7.5, 150 mM KCl, 0.05% Triton X-100, 0.5 mg/ml BSA, and 0.1 mg/ml salmon sperm DNA). […] The extent of binding between the Bcl-XL-GST fusion protein and the mRNA display constructs or free peptides was determined by scintillation counting each fraction, including the recovered beads.
# Members of the Bcl-2 family of apoptotic proteins function via homo- and heterodimerization, occurring primarily through the binding of a single α-helix designated the BH3 domain (Bcl-2 Homology domain 3) in a corresponding pocket produced by three α-helices in the interacting partner (Diaz et al., J. Biol. Chem. 272:11350-11355, 1997; and Sattler et al., Science 275:983-986, 1997). […] The amount of peptide bound to the beads was determined by scintillation counting and graphed as the percent of input counts bound (FIG. 2B).
# [2] = biological target: human Bcl-XL-GST fusion protein (human) [GST: P08515]; experiment: purified labeled free peptide on immobilized Bcl-XL-GST
# [3] = biological target: T2, Bcl-XL-GST fusion protein (Homo sapiens, UniProt Q07817); experiment: Free purified polypeptide binding to Bcl-XL-GST fusion protein (additional selection, FIG. 9); conditions: purified free polypeptides
# T2 construct: made in house; host or cells: E. coli BL21 (DE3) pLysS
# Method: (§1) Detection of a polypeptide binding to a Bcl-XL-glutathione S-transferase (GST) fusion protein was carried out as follows. Twenty microliters of glutathione Sepharose 4B slurry (AP Biotech) was aliquoted to a microcentrifuge tube and washed with PBS. The Bcl-XL-GST fusion protein (60 μg), prepared as describe above, was added and allowed to bind to the Sepharose beads for 1 hr at 4° C. The beads were then re-washed in selection buffer (50 mM Tris-HCL pH 7.5, 150 mM KCl, 0.05% Triton X-100, 0.5 mg/ml BSA, and 0.1 mg/ml salmon sperm DNA). The Bcl-XL-GST beads were resuspended in 100 μl of selection buffer (approximately 11.5 μM Bcl-XL) and ^35S-labeled mRNA display construct or free peptide was added (approximately 10-60 nM) and incubated on a rotator for 1 hr at 4° C. The reaction was then transferred to a microcentrifuge column (BioRad) and unbound mRNA display constructs or free peptides were removed by a 10 sec spin at 1,000 rpm. The Sepharose beads were then washed three times with 500 μl of selection buffer. The extent of binding between the Bcl-XL-GST fusion protein and the mRNA display constructs or free peptides was determined by scintillation counting each fraction, including the recovered beads. […]
# [4] = biological target: T3, human Bcl-XL-GST fusion protein (human, UniProt P08515 1-218 = GST; Q07817 1-211); experiment: labeled free peptide on Bcl-XL-GST beads, immobilized target varied from 11 nM to 28 µM
# T3 construct: Made in E. coli, immobilized on glutathione Sepharose beads; whole entry named; also called Bcl-XL-glutathione S-transferase (GST) fusion protein; GST-BCL-XL
# Method: Detection of a polypeptide binding to a Bcl-XL-glutathione S-transferase (GST) fusion protein was carried out as follows. Twenty microliters of glutathione Sepharose 4B slurry (AP Biotech) was aliquoted to a microcentrifuge tube and washed with PBS. The Bcl-XL-GST fusion protein (60 μg), prepared as describe above, was added and allowed to bind to the Sepharose beads for 1 hr at 4° C. The beads were then re-washed in selection buffer (50 mM Tris-HCL pH 7.5, 150 mM KCl, 0.05% Triton X-100, 0.5 mg/ml BSA, and 0.1 mg/ml salmon sperm DNA). The Bcl-XL-GST beads were resuspended in 100 μl of selection buffer (approximately 11.5 μM Bcl-XL) and ³⁵S-labeled mRNA display construct or free peptide was added (approximately 10-60 nM) and incubated on a rotator for 1 hr at 4° C. […] The extent of binding between the Bcl-XL-GST fusion protein and the mRNA display constructs or free peptides was determined by scintillation counting each fraction, including the recovered beads.
# Purified radioactively labeled protein from the individual clones was incubated with immobilized Bcl-XL-GST for one hour and, after washing, the amount bound was determined by scintillation counting. […] The amount of peptide bound to Bcl-XL was determined by scintillation counting and normalized to that bound at the highest concentration. […]
# [5] = biological target: T3, human Bcl-XL-GST fusion protein; experiment: 35S-labeled mRNA display construct on Bcl-XL-GST glutathione Sepharose beads, scintillation counting
# Method: as §1, with “³⁵S-labeled” for “^35S-labeled”
# [6] = biological target: T3, human Bcl-XL-GST fusion protein; experiment: labeled free peptide on immobilized Bcl-XL-GST with Bak BH3 competitor
# Method: Only three of the selected proteins (Bim, Bak, and Bax) were previously known to contain a BH3 domain. In order to determine if the other proteins bound to the BH3 domain binding site on Bcl-XL, a competition assay was performed. The Bak BH3 domain peptide used as a positive control was prepared by chemical synthesis and used to compete with individual Bcl-XL-binding polypeptides in a Bcl-XL binding assay. […] At a fixed concentration of immobilized Bcl-XL, the Bak BH3 domain-containing peptide […] (SEQ ID NO: 152), also containing a FLAG-M2 epitope, was added at the indicated concentration along with a trace amount of a selected Talin fragment. After binding for 1 hour, the unbound material was removed and the bound protein was quantitated. The bound protein was assayed by scintillation counting, normalized to that bound in the absence of competitor, and plotted versus competitor concentration.
# A competition assay was performed for each of the selected Bcl-XL-binding polypeptides using 20 μM Bak BH3 competitor based on the titration shown in FIG. 6.
# T3 sequence (P08515 1-218, tags or fused parts left off): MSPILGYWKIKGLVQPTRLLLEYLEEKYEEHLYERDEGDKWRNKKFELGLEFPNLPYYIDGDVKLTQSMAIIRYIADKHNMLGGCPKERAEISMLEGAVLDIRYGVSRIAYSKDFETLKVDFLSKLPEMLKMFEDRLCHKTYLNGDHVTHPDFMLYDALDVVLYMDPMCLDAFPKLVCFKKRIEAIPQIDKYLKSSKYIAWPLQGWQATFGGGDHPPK
# T1 sequence (Q07817 1-211): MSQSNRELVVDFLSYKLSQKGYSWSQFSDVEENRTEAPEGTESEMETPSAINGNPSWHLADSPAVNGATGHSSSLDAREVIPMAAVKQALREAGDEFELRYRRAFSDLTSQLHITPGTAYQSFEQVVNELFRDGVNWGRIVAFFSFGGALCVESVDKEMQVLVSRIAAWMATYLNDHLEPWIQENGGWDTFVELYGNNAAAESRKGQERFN
# T2 sequence (Q07817 1-211): as above
# Chain of human Bcl-XL-GST fusion protein (human) [GST: P08515] (P08515 1-218, tags or fused parts left off): as the sequence (P08515 1-218, tags or fused parts left off) above
molecule,measurement,setting,value
Bcl-2: BH3 domain of Bcl-2 prepared as mRNA display construct (FIG. 2A) (PVVHLTLRQAGDDFSR),percent of input counts bound to Bcl-XL-GST,[1],no binding was observed
Bax (clone AttB-Hc-7) (from UniProt Q07812 40-95) (peptide),percent bound,[2],32%
"Bmf: selected Bmf polypeptide of the additional selection, purified free polypeptide (KAEVQIARKLQCIADQFHRLHVL)",Binding to the Bcl-XL-GST fusion protein,[3],6%
B1,binding result,[4],binds
B2,binding result,[5],no binding
B3,binding result,[6],binds
